Among the data in US20220112276A1 (Janssen / Centocor, published 2022) are Kd values, retold here.

The labels stand for the following.
B1: 01F09R3 VHH Mono-Fc (Fc fusion)
chain: QVQLVESGGGLAQAGGSLTLSCAASGTAAGIDVMGWYRQTPGNSREFVARIFSNDVTHYADSVTGRFTLSRTQDKNTVSLQMNSLKPDDTGVYYCNARIWTGSTTVDYWGQGTQVTVSSSPAPELLGGPSVFLFPPKPKDTLMISRTPEVTCVVVDVSHEDPEVKFNWYVDGVEVHNAKTKPREEQYNSTYRVVSVLTVLHQDWLNGKEYKCKVSNKALPAPIEKTISKAKGQPREPQVYTKPPSREEMTKNQVSLSCLVKGFYPSDIAVEWESNGQPENNYKTTVPVLDSDGSFRLASYLTVDKSRWQQGNVFSCSVMHEALHNHYTQKSLSLSPGK
B2: 01G07R2L VHH Mono-Fc (Fc fusion)
chain: QVQLVESGGGLVQPGGSLRLSCVASGLPFSSSRMAWFAQAPGKEREFVAAIGWRGRTSYKYYADSVKGRFTVSGDNAKKTLDLQMKDLKPEDTALYFCAAHPNDDGDPRISGNYQYWGQGTQVTVSSSPAPELLGGPSVFLFPPKPKDTLMISRTPEVTCVVVDVSHEDPEVKFNWYVDGVEVHNAKTKPREEQYNSTYRVVSVLTVLHQDWLNGKEYKCKVSNKALPAPIEKTISKAKGQPREPQVYTKPPSREEMTKNQVSLSCLVKGFYPSDIAVEWESNGQPENNYKTTVPVLDSDGSFRLASYLTVDKSRWQQGNVFSCSVMHEALHNHYTQKSLSLSPGK
B3: 01C03R3LS VHH Mono-Fc (Fc fusion)
chain: B2 chain with Q1E, F29G, G52A, A63S, K79R, K89N
B4: 01A01R3 VHH Mono-Fc (Fc fusion)
chain: EVQLVESGGGLVQAGGSLRLSCAASGSGRTFTSYTMGWFRQAPGKEREFVSALTWADDSTYYKYYADSMKGRLTISRDNAKNTVYLQMNSLKPEDTAVYYCVATGRGLTYDPRDRRKYDYWGQGTQVTVSSSPAPELLGGPSVFLFPPKPKDTLMISRTPEVTCVVVDVSHEDPEVKFNWYVDGVEVHNAKTKPREEQYNSTYRVVSVLTVLHQDWLNGKEYKCKVSNKALPAPIEKTISKAKGQPREPQVYTKPPSREEMTKNQVSLSCLVKGFYPSDIAVEWESNGQPENNYKTTVPVLDSDGSFRLASYLTVDKSRWQQGNVFSCSVMHEALHNHYTQKSLSLSPGK
B5: 01F03R2LS VHH Mono-Fc (Fc fusion)
chain: EVQLVESGGGLVQAGDSLRLSCAASGRTGSSGAMGWFRQGPGKEREFVAALMWRNTVTYKYYEDSVKGRFTISRDNAKNTAYLQMNSLKPEDTAVYYCAADPDTYGDPRNSGAYDYWGQGTLVTVSSSPAPELLGGPSVFLFPPKPKDTLMISRTPEVTCVVVDVSHEDPEVKFNWYVDGVEVHNAKTKPREEQYNSTYRVVSVLTVLHQDWLNGKEYKCKVSNKALPAPIEKTISKAKGQPREPQVYTKPPSREEMTKNQVSLSCLVKGFYPSDIAVEWESNGQPENNYKTTVPVLDSDGSFRLASYLTVDKSRWQQGNVFSCSVMHEALHNHYTQKSLSLSPGK
B6: 01B02R2L VHH Mono-Fc (Fc fusion)
chain: EVQLVESGGGLVQAGGSLKLACAASGLTFSSYRMGWFRQAPGKEREFVAAIDWNGRGTYYRYYADSVKGRFTISRDNAKNTMCLQMNSLKPEDTAVYYSAIDSRTSIDPRTSGHYRYWGQGTLVTVSSSPAPELLGGPSVFLFPPKPKDTLMISRTPEVTCVVVDVSHEDPEVKFNWYVDGVEVHNAKTKPREEQYNSTYRVVSVLTVLHQDWLNGKEYKCKVSNKALPAPIEKTISKAKGQPREPQVYTKPPSREEMTKNQVSLSCLVKGFYPSDIAVEWESNGQPENNYKTTVPVLDSDGSFRLASYLTVDKSRWQQGNVFSCSVMHEALHNHYTQKSLSLSPGK
B7: 01F12R2 VHH Mono-Fc (Fc fusion)
chain: EVQLVESGGGLVQPGGSLRLSCAASGRTFSSYTMGWFRQAPGEEREFVSAISWSSDGTYYKYYTDTVKGRFTISRDNAETTVHLQMNSLKPEDTAVYYCAASSSGTYGDPRSEREYRYWGQGTLVTVSSSPAPELLGGPSVFLFPPKPKDTLMISRTPEVTCVVVDVSHEDPEVKFNWYVDGVEVHNAKTKPREEQYNSTYRVVSVLTVLHQDWLNGKEYKCKVSNKALPAPIEKTISKAKGQPREPQVYTKPPSREEMTKNQVSLSCLVKGFYPSDIAVEWESNGQPENNYKTTVPVLDSDGSFRLASYLTVDKSRWQQGNVFSCSVMHEALHNHYTQKSLSLSPGK
B8: 01E04R3LS VHH Mono-Fc (Fc fusion)
chain: EVQLVESGGGLVQAGDSLRLSCAASGRTFTTYVMGWFRQAPGKDREFVATITWSGSTNYKYYADPVKGRFTISRDNAKNTVYLQMNSLKPEDTAVYYCTSSTVVTDPRKLNEYAYWGQGTLVTVSSSPAPELLGGPSVFLFPPKPKDTLMISRTPEVTCVVVDVSHEDPEVKFNWYVDGVEVHNAKTKPREEQYNSTYRVVSVLTVLHQDWLNGKEYKCKVSNKALPAPIEKTISKAKGQPREPQVYTKPPSREEMTKNQVSLSCLVKGFYPSDIAVEWESNGQPENNYKTTVPVLDSDGSFRLASYLTVDKSRWQQGNVFSCSVMHEALHNHYTQKSLSLSPGK
B9: 03C05R3 VHH Mono-Fc (Fc fusion)
chain: EVQLVESGGGLVKAEGSLRLSCVASTSIASINVMGWYRQAPGKERELVARISGGGITHYAESVEGRFTISRDNAKNTVHLQMNGLKPEDTAAYYCKADVFASSGHVTTYWGQGTLVTVSSSPAPELLGGPSVFLFPPKPKDTLMISRTPEVTCVVVDVSHEDPEVKFNWYVDGVEVHNAKTKPREEQYNSTYRVVSVLTVLHQDWLNGKEYKCKVSNKALPAPIEKTISKAKGQPREPQVYTKPPSREEMTKNQVSLSCLVKGFYPSDIAVEWESNGQPENNYKTTVPVLDSDGSFRLASYLTVDKSRWQQGNVFSCSVMHEALHNHYTQKSLSLSPGK
B10: 01A07R3 VHH Mono-Fc (Fc fusion)
chain: EVQLVESGGGLVQTGESLRLSCAASGRAFSDLRMAWFRQVPGKEREFVAAVEWRGSSRYYYSADSVKGRFTISRTSPKGETYLQMNGLKPEDTAVYYCAAVSPVVGDPRNSDTYNYWGQGTQVTVSSSPAPELLGGPSVFLFPPKPKDTLMISRTPEVTCVVVDVSHEDPEVKFNWYVDGVEVHNAKTKPREEQYNSTYRVVSVLTVLHQDWLNGKEYKCKVSNKALPAPIEKTISKAKGQPREPQVYTKPPSREEMTKNQVSLSCLVKGFYPSDIAVEWESNGQPENNYKTTVPVLDSDGSFRLASYLTVDKSRWQQGNVFSCSVMHEALHNHYTQKSLSLSPGK

Where a chain is given by its changes, count along the chain named.

The target in the first test is T1, cynomolgus monkey pIgR extracellular domain (cynomolgus monkey, UniProt A0A2K5WMU9 19-638).
T1 construct: extracellular domain
T1 sequence (A0A2K5WMU9 entry or part of it): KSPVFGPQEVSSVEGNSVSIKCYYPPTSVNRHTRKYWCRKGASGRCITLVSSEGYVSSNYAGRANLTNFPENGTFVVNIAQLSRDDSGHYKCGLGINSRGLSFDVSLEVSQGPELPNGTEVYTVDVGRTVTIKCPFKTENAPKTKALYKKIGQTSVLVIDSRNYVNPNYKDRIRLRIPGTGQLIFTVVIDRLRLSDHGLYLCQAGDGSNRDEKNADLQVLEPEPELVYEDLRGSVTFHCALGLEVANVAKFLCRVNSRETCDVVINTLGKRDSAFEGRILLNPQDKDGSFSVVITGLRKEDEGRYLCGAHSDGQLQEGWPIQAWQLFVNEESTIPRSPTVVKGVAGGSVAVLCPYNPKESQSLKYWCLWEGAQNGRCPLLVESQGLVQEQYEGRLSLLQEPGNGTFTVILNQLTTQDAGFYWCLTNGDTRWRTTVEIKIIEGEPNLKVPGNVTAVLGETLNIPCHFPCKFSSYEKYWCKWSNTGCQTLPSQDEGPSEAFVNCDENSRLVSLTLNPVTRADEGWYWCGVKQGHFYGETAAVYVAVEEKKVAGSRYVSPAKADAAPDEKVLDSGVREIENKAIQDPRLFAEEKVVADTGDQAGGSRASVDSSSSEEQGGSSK
Briefly: SPR, VHH captured by anti-Fc, ECD analyte. In short, it runs like this: (§1)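 Anti-human Fc surface captured VHH at 0.5 ug/ml (~200-300 RU); running buffer HBSP with 100 ug/ml BSA, 30 μL/min. Single-cycle kinetics with ECD injected low to high from 30 nM in 3-fold dilutions, dissociation 30 min. Double-referenced data globally fit to 1:1 Langmuir model for kon, koff, KD.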
A general note: In SPR one partner is held on a chip, and binding of the other changes the refractive index at the surface.
In turn, B1 registered a Kd of 566 nM.

As to B2, the affinity, expressed as Kd, was 4.02 nM.

The molecule B3 returned a Kd of 2.84 nM.

B4 showed a Kd of 4.93 nM.

With B5, the Kd came to 34.4 nM.

B6 returned a Kd of 14.2 nM.

As for B7, the affinity, expressed as Kd, was 3.17 nM.

Regarding B8, the Kd was determined as 3.97 nM.

In turn, B9 returned a Kd of 16.5 nM.

The molecule B10 came in with a Kd of 10.7 nM.

The target in the next test is T2, rat pIgR extracellular domain (rat, UniProt P15083 19-643).
T2 construct: extracellular domain
T2 sequence (looked up): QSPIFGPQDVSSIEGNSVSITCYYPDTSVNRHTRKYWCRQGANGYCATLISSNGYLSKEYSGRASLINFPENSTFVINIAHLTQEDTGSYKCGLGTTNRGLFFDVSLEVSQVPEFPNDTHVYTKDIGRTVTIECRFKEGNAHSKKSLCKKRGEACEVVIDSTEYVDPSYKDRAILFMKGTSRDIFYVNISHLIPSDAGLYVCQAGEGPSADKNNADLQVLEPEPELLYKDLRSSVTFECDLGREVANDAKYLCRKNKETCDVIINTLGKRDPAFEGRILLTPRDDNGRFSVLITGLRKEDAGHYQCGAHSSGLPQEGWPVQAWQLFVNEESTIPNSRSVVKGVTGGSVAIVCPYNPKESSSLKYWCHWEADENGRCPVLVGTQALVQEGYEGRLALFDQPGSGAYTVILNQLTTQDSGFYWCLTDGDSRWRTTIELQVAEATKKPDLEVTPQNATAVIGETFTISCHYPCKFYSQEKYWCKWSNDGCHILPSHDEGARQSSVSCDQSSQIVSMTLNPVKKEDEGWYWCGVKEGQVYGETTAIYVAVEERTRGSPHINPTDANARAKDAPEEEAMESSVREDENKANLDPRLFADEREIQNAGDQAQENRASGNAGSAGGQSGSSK
Briefly: SPR, VHH captured by anti-Fc, ECD analyte. The essentials:
as §1
B1 gave a Kd of 70.8 nM.

The molecule B2 had a Kd of 1.44 nM.

The molecule B3 yielded a Kd of 3.02 nM.

Molecule B4 had a Kd of 1.34 nM.

Turning to B5, the Kd is 8.05 nM.

In turn, B6 gave a Kd of 13.4 nM.

Molecule B7 came in with a Kd of 4.2 nM.

As to B8, the Kd is 1.36 nM.

B9 had a Kd of 1.83 nM.

B10 came in with a Kd of 1.24 nM.

The next test deals with T3, human pIgR extracellular domain (ECD) (human, UniProt P01833 19-638).
T3 construct: Bought from R&D Systems (Cat 2717-PG-050); also called hpIgR ECD
T3 sequence (P01833 other isoform, or with tags, fused parts or gaps): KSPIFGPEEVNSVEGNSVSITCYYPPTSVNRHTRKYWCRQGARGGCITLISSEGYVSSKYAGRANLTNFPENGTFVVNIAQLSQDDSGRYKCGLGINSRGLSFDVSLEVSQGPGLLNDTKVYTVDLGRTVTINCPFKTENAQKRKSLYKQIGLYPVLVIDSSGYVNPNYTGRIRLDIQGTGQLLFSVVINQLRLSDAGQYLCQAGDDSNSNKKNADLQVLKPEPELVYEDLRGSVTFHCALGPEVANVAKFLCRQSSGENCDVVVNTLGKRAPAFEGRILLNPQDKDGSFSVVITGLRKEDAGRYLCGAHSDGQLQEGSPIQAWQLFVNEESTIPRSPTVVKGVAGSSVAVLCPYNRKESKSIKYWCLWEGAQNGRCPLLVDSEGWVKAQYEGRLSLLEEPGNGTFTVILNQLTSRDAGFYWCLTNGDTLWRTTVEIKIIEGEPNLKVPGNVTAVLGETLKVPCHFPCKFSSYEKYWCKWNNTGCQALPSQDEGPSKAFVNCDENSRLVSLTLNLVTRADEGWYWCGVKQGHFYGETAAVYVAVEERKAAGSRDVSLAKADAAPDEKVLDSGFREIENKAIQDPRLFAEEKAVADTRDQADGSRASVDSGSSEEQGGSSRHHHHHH
The test is described as follows: SPR, VHH captured by anti-Fc, ECD analyte. In short, it runs like this:
as §1
Take B1: the Kd was 0.397 nM.

The molecule B2 registered a Kd of 3.32 nM.

Turning to B3, the Kd stood at 4.87 nM.

B4 had a Kd of 1.31 nM.

For the molecule B5, the Kd was found to be 26.2 nM.

In turn, B6 gave a Kd of 20.2 nM.

For the molecule B7, the Kd is 12.5 nM.

As to B8, binding was put at a Kd of 5.37 nM.

Molecule B9 gave a Kd of 0.094 nM.

As to B10, the Kd was 0.2 nM.

The next test deals with T4, mouse pIgR extracellular domain (ECD) (mouse, UniProt O70570 19-645).
T4 construct: Bought from R&D Systems (Cat 2800-PG-050); also called mpIgR ECD
T4 sequence: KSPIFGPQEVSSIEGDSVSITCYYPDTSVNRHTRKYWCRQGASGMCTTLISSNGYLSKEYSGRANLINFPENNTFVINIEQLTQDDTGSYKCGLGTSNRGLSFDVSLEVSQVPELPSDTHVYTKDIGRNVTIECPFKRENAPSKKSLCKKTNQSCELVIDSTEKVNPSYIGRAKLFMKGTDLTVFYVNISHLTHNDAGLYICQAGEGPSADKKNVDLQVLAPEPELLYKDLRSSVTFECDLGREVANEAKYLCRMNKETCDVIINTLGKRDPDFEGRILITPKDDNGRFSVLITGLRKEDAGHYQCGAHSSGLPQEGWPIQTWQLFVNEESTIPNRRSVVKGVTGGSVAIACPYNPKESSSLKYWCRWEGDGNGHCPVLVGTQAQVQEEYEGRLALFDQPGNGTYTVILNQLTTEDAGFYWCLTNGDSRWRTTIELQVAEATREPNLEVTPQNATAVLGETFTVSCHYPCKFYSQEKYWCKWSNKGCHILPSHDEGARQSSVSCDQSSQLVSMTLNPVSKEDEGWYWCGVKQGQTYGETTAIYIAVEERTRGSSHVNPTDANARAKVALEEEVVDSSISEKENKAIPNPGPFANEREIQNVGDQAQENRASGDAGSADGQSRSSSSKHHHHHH
Briefly: SPR, VHH captured by anti-Fc, ECD analyte. In short, it runs like this: as §1
Molecule B1 returned a dissociation constant Kd of 985 nM.

Take B2: the Kd stood at 0.948 nM.

Regarding B3, the affinity, expressed as Kd, was 0.8 nM.

Take B4: the Kd is 14 nM.

Consider B5, for which binding was put at a Kd of 1.57 nM.

The molecule B6 had a Kd of 4.47 nM.

In turn, B7 gave a Kd of 264 nM.

In turn, B8 gave a Kd of 3.76 nM.

B9 came in with a Kd of 9.02 nM.

In turn, B10 displayed a Kd of 1.41 nM.

The term Kd denotes the constant that tells how readily two partners part at equilibrium.
